Results: paper PMC9313494 (2022)

Target: Lys-Nle peptide (norleucine (Nle) residues (Nle12 named); D-residues (D-Lys1, D-Lys8 named); terminal thiol group)
Assay: SPR

B1: bone morphogenetic protein-2 (BMP-2) (ligand)
chain: QAKHKQRKRLKSSCKRHPLYVDFSDVGWNDWIVAPPGYHAFYCHGECPFPLADHLNSTNHAIVQTLVNSVNSKIPKACCVPTELSAISMLYLDENEKVVLKNYQDMVVEGCGCR
koff: 0.00973 s⁻¹
